The test relates to rabbit EE. The experiment in a line: Barrier breaker search: rabbit EE in U-chambers, monitoring RT (marker of PCP) and Isc. Particulars: at pH 2. It is filed as cell-based. An excerpt: Agents that increase paracellular permeability (PCP) in EE are potential contributors to GERD by enabling diffusion of luminal acid into the intercellular space. Therefore, substances were sought within the refluxate, meals and inflammation that could ‘break the barrier’. This was done by exposing rabbit EE in U-chambers to candidate inflammatory agents while both monitoring RT, as a marker of PCP, and Isc (short circuit current), as a marker of active transport. The inflammatory agents were selected based on presence in EE or on reports that they can break the barrier in other epithelia (47-60).

B1: pepsin: barrier breaker identified at pH 2 (protein, UniProt P0DJD8 63-388, looked up)
Pepsin A-3: VDEQPLENYLDMEYFGTIGIGTPAQDFTVVFDTGSSNLWVPSVYCSSLACTNHNRFNPEDSSTYQSTSETVSITYGTGSMTGILGYDTVQVGGISDTNQIFGLSETEPGSFLYYAPFDGILGLAYPSISSSGATPVFDNIWNQGLVSQDLFSVYLSADDQSGSVVIFGGIDSSYYTGSLNWVPVTVEGYWQITVDSITMNGEAIACAEGCQAIVDTGTSLLTGPTSPIANIQSDIGASENSDGDMVVSCSAISSLPDIVFTINGVQYPVPPSAYILQSEGSCISGFQGMNLPTESGELWILGDVFIRQYFTVFDRANNQVGLAPVA
For the molecule B1, the “breaks the barrier (RT as marker of PCP)” value is on record as “barrier breakers”.

Source of the values: patent publication US8679766B2, “E-cadherin as a biomarker of gastroesophageal reflux disease” (The University of North Carolina at Chapel Hill, priority 2009, dated 2014).
